The values below come from PMC9684126.

The series concerns Smc5/6 holo-complex, Cy3-labelled (8 subunits) (Saccharomyces cerevisiae (expressed in W303-1a)). The experiment in a line: single-molecule optical tweezers with confocal fluorescence, lifetime. The settings on record: biotin at the two ends, Single-molecule buffer not given in the material (20 nM Cy3-Smc5/6 and 2 mM ATP in Fig. 6b; ~5 or ~60 pN), entrapment: 10 mM HEPES-KOH pH 7.5, 150 mM KAc.

Substance “lambda DNA tether, dsDNA (low force ~5 pN, or dsDNA regions at high force)” returned a binding signal of 76 s. For the setting “5 nM Smc5/6 then buffer only, high force”, “lambda DNA tether, ss-dsDNA junctions at high force (~60 pN)” displayed a binding signal above 290 s.
